Measurements reported in PMC13456277, “Direct interaction between RSV polymerase L and active Rab11a mediates viral ribonucleoprotein transport to assembly sites” (PLOS Pathogens, 2026).

Assays:
[1] = target: RSV L-Twin-Strep-tag + P-his (human respiratory syncytial virus, UniProt P28887 1-2165; P03421 1-241); test: BLI
Target sequence in this assay (P28887 whole entry, chain 1 of 2): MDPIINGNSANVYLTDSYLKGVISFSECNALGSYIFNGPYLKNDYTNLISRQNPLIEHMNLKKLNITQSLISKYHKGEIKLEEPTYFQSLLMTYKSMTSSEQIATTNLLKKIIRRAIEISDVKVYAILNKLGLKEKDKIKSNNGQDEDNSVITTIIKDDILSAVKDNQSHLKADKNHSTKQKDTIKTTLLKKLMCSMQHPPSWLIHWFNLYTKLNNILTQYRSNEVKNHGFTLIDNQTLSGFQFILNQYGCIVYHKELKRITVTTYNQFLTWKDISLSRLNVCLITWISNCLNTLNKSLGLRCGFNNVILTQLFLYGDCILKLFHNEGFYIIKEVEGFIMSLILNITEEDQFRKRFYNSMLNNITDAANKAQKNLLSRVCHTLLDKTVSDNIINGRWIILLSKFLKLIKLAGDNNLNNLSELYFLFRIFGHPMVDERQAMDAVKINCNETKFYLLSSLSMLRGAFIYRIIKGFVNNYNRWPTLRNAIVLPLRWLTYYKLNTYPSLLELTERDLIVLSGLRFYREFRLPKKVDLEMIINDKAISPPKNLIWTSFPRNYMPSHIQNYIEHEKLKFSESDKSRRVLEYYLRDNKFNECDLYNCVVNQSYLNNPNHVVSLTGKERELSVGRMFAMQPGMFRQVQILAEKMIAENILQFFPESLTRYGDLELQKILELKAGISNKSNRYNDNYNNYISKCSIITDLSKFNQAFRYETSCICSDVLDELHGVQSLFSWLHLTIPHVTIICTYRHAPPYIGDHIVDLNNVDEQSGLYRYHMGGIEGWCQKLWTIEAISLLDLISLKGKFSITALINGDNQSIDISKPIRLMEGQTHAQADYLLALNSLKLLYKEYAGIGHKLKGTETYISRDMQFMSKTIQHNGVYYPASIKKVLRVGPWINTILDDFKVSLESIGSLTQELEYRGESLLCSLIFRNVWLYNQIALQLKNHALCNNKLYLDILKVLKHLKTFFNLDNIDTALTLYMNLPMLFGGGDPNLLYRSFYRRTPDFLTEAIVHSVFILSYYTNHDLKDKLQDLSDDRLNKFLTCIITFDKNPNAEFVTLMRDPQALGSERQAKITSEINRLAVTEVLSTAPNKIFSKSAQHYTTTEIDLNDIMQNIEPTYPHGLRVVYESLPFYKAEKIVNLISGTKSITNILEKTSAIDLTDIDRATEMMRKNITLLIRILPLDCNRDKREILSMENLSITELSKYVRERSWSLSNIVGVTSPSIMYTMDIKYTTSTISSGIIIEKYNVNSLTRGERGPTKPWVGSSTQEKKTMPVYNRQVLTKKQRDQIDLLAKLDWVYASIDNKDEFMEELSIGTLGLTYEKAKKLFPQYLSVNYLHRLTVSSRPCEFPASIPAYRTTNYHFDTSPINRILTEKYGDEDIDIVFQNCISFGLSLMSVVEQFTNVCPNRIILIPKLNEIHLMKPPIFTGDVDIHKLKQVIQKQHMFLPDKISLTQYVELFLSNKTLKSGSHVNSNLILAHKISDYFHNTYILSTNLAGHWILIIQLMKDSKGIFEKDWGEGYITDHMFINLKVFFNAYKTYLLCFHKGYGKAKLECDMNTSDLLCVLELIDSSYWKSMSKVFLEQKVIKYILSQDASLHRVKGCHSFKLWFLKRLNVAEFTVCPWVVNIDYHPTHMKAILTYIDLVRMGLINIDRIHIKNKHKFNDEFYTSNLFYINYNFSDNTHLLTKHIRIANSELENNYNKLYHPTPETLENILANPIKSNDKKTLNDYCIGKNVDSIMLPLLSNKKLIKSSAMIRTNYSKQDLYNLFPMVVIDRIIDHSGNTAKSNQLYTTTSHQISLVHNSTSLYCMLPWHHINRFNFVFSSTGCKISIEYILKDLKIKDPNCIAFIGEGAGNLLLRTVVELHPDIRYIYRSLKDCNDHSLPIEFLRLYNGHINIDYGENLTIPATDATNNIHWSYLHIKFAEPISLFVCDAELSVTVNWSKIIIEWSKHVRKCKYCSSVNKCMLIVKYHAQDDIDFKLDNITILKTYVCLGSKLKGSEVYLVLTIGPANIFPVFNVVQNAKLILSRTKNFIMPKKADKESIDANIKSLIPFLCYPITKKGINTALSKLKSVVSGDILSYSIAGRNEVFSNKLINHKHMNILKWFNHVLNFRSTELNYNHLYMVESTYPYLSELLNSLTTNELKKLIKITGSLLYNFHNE
Target sequence in this assay (P03421 whole entry, chain 2 of 2): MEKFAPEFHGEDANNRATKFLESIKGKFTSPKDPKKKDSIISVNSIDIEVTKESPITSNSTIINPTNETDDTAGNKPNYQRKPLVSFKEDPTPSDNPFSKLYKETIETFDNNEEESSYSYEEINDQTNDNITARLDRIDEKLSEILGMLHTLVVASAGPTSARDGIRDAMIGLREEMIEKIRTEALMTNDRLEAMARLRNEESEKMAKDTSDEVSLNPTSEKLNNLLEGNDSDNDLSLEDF

[2] = target: T1, RSV L-Twin-Strep-tag + P-his (human respiratory syncytial virus, UniProt P28887 1-2165; P03421 1-241); test: BLI; Octet RED 384, 25°C; L-Twin-Strep-tag + P-his loaded on Ni-NTA sensors; two-fold dilutions of GST-Rab11a (with 1 mM GTP) or GST-Rab11a CA from 50 nM to 3.2 µM; association 60 min to steady state, dissociation 5 min; apparent KD from steady-state responses, one-site model, double referenced; details: both partners purified
T1 construct: RSV large polymerase L, codon-optimized; RSV phosphoprotein P, codon-optimized; L as in m21; also called L-P^-his; L-P complexes; source: Sf9, baculovirus, purified (Strep-Trap XT, SEC Superose 6); not shown: Twin-Strep-tag, C-terminal, kept; His6, C-terminal, kept
T1 sequence (P28887 whole entry, chain 1 of 2): as the sequence (P28887 whole entry, chain 1 of 2) above
T1 sequence (P03421 whole entry, chain 2 of 2): as the sequence (P03421 whole entry, chain 2 of 2) above

B1: GST-Rab11a(Q70L) CA (natural protein)
chain: MGTRDDEYDYLFKVVLIGDSGVGKSNLLSRFTRNEFNLESKSTIGVEFATRSIQVDGKTIKAQIWDTAGLERYRAITSAYYRGAVGALLVYDIAKHLTYENVERWLKELRDHADSNIVIMLVGNKSDLRHLRAVPTDEARAFAEKNGLSFIETSALDSTNVEAAFQTILTEIYRIVSQKQMSDRRENDMSPSNNVVPIHVPPTTENKPKVQCCQNI
Kd [1]: 1.2 µM

B2: GST-Rab11a WT (natural protein, human, UniProt P62491 1-216, looked up)
chain: MGTRDDEYDYLFKVVLIGDSGVGKSNLLSRFTRNEFNLESKSTIGVEFATRSIQVDGKTIKAQIWDTAGQERYRAITSAYYRGAVGALLVYDIAKHLTYENVERWLKELRDHADSNIVIMLVGNKSDLRHLRAVPTDEARAFAEKNGLSFIETSALDSTNVEAAFQTILTEIYRIVSQKQMSDRRENDMSPSNNVVPIHVPPTTENKPKVQCCQNI
notes: human Rab11a; pGEX 4T-3; Used with or without 1 mM GTP; also called GST-Rab11a wild-type; source: E. coli BL21, purified (Glutathione Sepharose 4B, SEC Superdex 200); not shown: GST, N-terminal, kept
Kd [2]: 0.3 µM
